According to publication PMC6242907, “Molecular basis of maintaining an oxidizing environment under anaerobiosis by soluble fumarate reductase” (Nature Communications, 2018):
Blank lines part the entries; values can stand above or below the binder they belong to.

Key:
[1] = molecular target: T1, Osm1 (residues 32-501), 6x His-tagged (S. cerevisiae, UniProt P21375 32-501); experiment: SPR; Biacore T-200, CM5 chip; MBP-Ero1 immobilised by amine coupling (1500 RU); Osm1 or chimeric Osm1 injected in PBS at 6.25 to 200 µM, 30 µL/min, 25 °C; affinity (steady-state) fitting; conditions: both partners purified
T1 construct: Osm1, soluble fumarate reductase of S. cerevisiae, amino acids 32-501, cloned in pET28a (NheI/XhoI); no removal of the tag is described except by trypsin for crystallisation; A31 is an extra residue from the cloning construct; The limits of the pET28a Osm1 used in the pull-down are not repeated in the methods; also called holo-Osm1; WT Osm1; source: also in lysate of BL21(DE3) co-expressing …

[2] = molecular target: T1, Osm1 (residues 32-501), 6x His-tagged; experiment: ITC; nano-ITC; 2.5 µL injections of 1.6 mM Osm1 into 40 µM Ero1 in PBS; conditions: both partners purified

T1 sequence (P21375 32-501): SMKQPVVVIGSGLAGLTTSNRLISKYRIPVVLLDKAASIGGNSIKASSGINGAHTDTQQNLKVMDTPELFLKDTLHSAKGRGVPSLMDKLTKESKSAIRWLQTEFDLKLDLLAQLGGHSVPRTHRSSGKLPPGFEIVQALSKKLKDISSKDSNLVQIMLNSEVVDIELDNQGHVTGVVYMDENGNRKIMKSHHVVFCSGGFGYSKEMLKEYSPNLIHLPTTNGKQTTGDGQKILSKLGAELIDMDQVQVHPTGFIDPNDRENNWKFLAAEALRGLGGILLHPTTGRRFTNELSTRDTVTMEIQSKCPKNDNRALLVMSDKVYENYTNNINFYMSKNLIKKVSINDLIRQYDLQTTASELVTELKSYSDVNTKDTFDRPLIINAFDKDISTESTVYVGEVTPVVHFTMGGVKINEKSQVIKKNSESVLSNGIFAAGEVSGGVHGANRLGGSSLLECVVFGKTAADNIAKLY

Kd [1]: ~200 µM
B1: His6-maltose-binding protein (H6-MBP)-fused Ero1 (56-424) (enzyme, yeast, UniProt Q03103 56-424, looked up)
chain: FNELNAINENIRDDLSALLKSDFFKYFRLDLYKQCSFWDANDGLCLNRACSVDVVEDWDTLPEYWQPEILGSFNNDTMKEADDSDDECKFLDQLCQTSKKPVDIEDTINYCDVNDFNGKNAVLIDLTANPERFTGYGGKQAGQIWSTIYQDNCFTIGETGESLAKDAFYRLVSGFHASIGTHLSKEYLNTKTGKWEPNLDLFMARIGNFPDRVTNMYFNYAVVAKALWKIQPYLPEFSFCDLVNKEIKNKMDNVISQLDTKIFNEDLVFANDLSLTLKDEFRSRFKNVTKIMDCVQCDRCRLWGKIQTTGYATALKILFEINDADEFTKQHIVGKLTKYELIALLQTFGRLSESIESVNMFEKMYGKRL
notes: Ero1, ER-resident flavoenzyme of yeast, residues 56-424; FAD cofactor; Uncleaved fusion (83 kDa) immobilised on the CM5 chip; a TEV site lies between H6-MBP and Ero1; The only purified MBP-Ero1 described in the methods is the H6-MBP fusion; also called MBP-Ero1; purified MBP-Ero1; source: E. coli Origami B(DE3), purified (HiTrap Ni2+, amylose)

Kd [2]: ~150 µM
B2: Ero1 (56-424), H6-MBP cleaved off (enzyme, yeast, UniProt Q03103 56-424, looked up)
chain: B1 chain
notes: Ero1, ER-resident flavoenzyme of yeast, residues 56-424; FAD cofactor; The ITC methods name only 'Ero1'; also called recombinant Ero1; source: E. coli Origami B(DE3), purified (HiTrap Ni2+, amylose, TEV cleavage, Ni2+ flow-through)
